Each block holds one binder with its values, some of them ahead of it.
Key:
[1] = molecular target: T1, human LILRB2 on the cell surface (human, UniProt Q8N423 22-597); assay: positive control of the LILRB2 ligand-blocking flow cytometry assay
T1 construct: whole, on cells; also called CHO K1 cells expressing human LILRB2; LILRB2 on HMDMs

[2] = molecular target: T2, LILRB3 on transiently transfected CHO cells (UniProt O75022 24-631, limits assumed); assay: CELISA, transiently transfected CHO cells; scFv cross-linked with an anti-framework antibody
T2 construct: whole, on cells; V5 tag at the N-terminus

[3] = molecular target: T3, LILRB5 on transiently transfected CHO cells (UniProt O75023 24-590, limits assumed); assay: as above
T3 construct: whole, on cells; V5 tag at the N-terminus
T3 sequence (O75023 24-590 limits assumed): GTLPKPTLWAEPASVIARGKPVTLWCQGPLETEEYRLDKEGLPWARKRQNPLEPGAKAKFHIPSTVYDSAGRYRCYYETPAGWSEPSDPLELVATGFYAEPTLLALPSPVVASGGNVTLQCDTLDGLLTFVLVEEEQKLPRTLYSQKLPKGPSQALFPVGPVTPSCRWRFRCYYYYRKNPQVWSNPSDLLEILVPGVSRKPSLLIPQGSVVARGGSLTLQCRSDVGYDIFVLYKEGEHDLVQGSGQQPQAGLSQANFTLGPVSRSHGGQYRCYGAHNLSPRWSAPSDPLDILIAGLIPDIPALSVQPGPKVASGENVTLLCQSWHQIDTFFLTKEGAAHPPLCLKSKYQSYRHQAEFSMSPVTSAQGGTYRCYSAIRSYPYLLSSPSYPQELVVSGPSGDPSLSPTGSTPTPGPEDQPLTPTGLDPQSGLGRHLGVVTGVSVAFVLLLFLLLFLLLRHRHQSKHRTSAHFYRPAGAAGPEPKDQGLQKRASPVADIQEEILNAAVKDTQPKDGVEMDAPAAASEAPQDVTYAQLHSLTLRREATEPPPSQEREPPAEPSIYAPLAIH

[4] = molecular target: T4, LILRA4 on transiently transfected CHO cells (UniProt P59901 24-499); assay: as above
T4 construct: whole, on cells; V5 tag at the N-terminus
T4 sequence (P59901 24-499): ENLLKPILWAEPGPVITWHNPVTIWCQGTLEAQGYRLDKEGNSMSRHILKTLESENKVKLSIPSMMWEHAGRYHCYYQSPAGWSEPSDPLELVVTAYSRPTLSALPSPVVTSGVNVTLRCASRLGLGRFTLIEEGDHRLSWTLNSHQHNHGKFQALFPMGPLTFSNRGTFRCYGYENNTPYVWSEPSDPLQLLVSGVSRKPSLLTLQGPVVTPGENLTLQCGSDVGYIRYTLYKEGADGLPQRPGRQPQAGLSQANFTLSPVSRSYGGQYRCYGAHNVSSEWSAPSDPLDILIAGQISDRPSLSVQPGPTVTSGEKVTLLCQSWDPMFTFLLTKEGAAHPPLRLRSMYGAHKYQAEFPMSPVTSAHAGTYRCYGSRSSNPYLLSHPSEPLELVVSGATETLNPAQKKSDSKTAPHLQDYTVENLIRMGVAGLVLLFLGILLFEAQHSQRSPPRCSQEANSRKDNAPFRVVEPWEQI

[5] = molecular target: T5, LILRB4 on transiently transfected CHO cells (UniProt Q8NHJ6 22-448); assay: as above
T5 construct: whole, on cells; V5 tag at the N-terminus

[6] = molecular target: T6, LILRA3 on transiently transfected CHO cells (UniProt Q8N6C8 24-439); assay: as above
T6 construct: whole, on cells; V5 tag at the N-terminus
T6 sequence (Q8N6C8 24-439): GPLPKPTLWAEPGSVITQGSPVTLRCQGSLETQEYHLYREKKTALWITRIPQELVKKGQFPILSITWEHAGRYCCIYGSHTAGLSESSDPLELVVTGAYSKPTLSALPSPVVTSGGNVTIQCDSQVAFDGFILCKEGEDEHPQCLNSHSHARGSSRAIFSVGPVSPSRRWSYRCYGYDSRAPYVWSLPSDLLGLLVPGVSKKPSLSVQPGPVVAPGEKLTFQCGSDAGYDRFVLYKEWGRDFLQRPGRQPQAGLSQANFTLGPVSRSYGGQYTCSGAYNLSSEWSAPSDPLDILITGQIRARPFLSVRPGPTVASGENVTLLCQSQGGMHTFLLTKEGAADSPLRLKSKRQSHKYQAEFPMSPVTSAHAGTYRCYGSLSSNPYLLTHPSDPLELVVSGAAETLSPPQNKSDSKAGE

[7] = molecular target: T7, LILRA6 on transiently transfected CHO cells (UniProt Q6PI73 24-481); assay: as above
T7 construct: whole, on cells; V5 tag at the N-terminus
T7 sequence (Q6PI73 24-481): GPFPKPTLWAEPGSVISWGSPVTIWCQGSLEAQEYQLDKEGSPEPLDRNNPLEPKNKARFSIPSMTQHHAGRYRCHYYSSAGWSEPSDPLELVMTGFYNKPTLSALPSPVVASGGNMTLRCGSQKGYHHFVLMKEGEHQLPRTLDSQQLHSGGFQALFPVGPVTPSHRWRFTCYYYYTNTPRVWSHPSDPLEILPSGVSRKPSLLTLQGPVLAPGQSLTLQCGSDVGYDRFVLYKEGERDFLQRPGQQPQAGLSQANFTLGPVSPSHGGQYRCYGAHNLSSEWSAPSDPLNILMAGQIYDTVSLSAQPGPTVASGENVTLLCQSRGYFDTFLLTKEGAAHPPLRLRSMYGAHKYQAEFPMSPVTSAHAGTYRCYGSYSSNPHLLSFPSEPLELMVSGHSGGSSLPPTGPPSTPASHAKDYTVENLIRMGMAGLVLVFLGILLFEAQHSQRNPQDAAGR

[8] = molecular target: T8, LILRA2 on transiently transfected CHO cells (UniProt Q8N149 24-483); assay: as above
T8 construct: whole, on cells; V5 tag at the N-terminus
T8 sequence (Q8N149 24-483): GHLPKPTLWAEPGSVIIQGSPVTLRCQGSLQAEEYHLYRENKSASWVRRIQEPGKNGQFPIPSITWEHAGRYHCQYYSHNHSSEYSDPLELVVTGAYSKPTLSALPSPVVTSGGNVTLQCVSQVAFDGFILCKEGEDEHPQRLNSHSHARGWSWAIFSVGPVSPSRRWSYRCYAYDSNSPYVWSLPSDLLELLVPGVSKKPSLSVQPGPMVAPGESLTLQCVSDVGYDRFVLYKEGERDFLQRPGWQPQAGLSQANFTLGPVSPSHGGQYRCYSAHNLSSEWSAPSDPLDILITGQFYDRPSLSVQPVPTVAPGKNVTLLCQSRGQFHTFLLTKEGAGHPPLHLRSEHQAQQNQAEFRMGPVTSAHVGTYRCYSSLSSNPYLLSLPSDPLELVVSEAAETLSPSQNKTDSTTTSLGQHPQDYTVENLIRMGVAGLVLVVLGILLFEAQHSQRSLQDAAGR

[9] = molecular target: T9, LILRA1 on transiently transfected CHO cells (UniProt O75019 17-489, limits assumed); assay: as above
T9 construct: whole, on cells; V5 tag at the N-terminus
T9 sequence (O75019 17-489 limits assumed): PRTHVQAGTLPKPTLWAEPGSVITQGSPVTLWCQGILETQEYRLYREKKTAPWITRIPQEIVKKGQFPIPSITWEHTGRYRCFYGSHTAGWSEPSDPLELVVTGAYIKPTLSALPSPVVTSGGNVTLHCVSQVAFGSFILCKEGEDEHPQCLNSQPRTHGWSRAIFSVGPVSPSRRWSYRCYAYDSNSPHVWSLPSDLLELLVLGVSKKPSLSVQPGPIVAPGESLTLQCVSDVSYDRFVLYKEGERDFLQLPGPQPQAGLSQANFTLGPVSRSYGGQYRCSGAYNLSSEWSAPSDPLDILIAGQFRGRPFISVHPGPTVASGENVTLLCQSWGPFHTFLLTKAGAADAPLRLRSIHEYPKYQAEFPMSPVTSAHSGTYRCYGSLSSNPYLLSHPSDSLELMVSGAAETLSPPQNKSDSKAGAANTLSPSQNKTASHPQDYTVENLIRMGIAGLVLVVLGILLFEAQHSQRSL

[10] = molecular target: T10, LILRA5 on transiently transfected CHO cells (UniProt A6NI73 42-299); assay: as above
T10 construct: whole, on cells; V5 tag at the N-terminus
T10 sequence (A6NI73 42-299): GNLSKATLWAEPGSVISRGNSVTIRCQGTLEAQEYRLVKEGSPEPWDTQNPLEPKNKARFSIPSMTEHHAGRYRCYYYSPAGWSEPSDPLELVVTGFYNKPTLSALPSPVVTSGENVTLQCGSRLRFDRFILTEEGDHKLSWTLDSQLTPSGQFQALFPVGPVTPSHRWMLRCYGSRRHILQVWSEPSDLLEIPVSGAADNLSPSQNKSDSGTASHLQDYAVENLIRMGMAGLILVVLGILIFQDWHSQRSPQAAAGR

recombinant human LILRB2 = molecular target: T11, recombinant human LILRB2 (human, UniProt Q8N423 22-460, limits assumed); assay: SPR, LILRB2 immobilised, scFv as analyte
T11 construct: also called ILT4
T11 sequence (Q8N423 22-460 limits assumed): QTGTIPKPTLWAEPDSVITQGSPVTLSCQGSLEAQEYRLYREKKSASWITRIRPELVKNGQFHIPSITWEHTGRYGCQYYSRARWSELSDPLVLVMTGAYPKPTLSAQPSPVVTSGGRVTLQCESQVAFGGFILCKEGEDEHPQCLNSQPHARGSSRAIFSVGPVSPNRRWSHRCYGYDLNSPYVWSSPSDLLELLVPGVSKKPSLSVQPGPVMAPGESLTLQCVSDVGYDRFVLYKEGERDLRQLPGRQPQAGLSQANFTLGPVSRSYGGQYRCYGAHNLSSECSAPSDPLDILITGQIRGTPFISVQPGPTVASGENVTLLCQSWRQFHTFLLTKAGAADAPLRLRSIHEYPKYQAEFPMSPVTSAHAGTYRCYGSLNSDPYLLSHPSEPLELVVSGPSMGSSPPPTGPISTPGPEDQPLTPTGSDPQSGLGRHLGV

[11] = molecular target: T1, human LILRB2 on the cell surface; assay: flow cytometry, CHO cells expressing LILRB2; competitor HLA-G tetramer; reference PRO2518
[12] = molecular target: T1, human LILRB2 on the cell surface; assay: flow cytometry, CHO cells expressing LILRB2; competitor HLA-G tetramer
recombinant human CD47 = recombinant human CD47 (human, UniProt Q08722 19-139, limits assumed); assay: SPR, antigen immobilised, antibody as analyte
recombinant human PDL1 = molecular target: T12, recombinant human PDL1 (human, UniProt Q9NZQ7 19-238, limits assumed); assay: SPR, antigen immobilised, antibody as analyte
T12 construct: SPR antigen; also called CD274; B7-H1

[13] = molecular target: T13, human CD47 on the cell surface (human, UniProt Q08722 19-323); assay: flow cytometry, human erythrocytes
T13 construct: whole, on cells; also called plasma membranous CD47; CHO CD47 cells

[14] = molecular target: T14, human PD-L1 on the cell surface (human, UniProt Q9NZQ7 19-290); assay: cell-based or functional assay
[15] = molecular target: T13, human CD47 on the cell surface; assay: cell-based or functional assay
[16] = molecular target: T14, human PD-L1 on the cell surface; assay: cell-based or functional assay; remark: listed apart in the source
[17] = molecular target: T13, human CD47 on the cell surface; assay: flow cytometry, CHO CD47 cells; competitor biotinylated SIRPα; column head prints EC50
[18] = molecular target: T13, human CD47 on the cell surface; assay: flow cytometry, HT-29 cells (CD47+, no PD-L1)
[19] = molecular target: T13, human CD47 on the cell surface; assay: flow cytometry, NCI-H292 cells; competitor biotinylated SIRPα; by the text maximum inhibition normalised to PRO2777
[20] = molecular target: T13, human CD47 on the cell surface; assay: flow cytometry, CHO CD47 cells; competitor biotinylated SIRPα; by the text maximum inhibition normalised to PRO2777
[21] = molecular target: T13, human CD47 on the cell surface; assay: flow cytometry, NCI-H292 cells (CD47+ PD-L1+); competitor biotinylated SIRPα; column head prints EC50
[22] = molecular target: T2, LILRB3 on transiently transfected CHO …; assay: CELISA, transiently transfected CHO cells
[23] = molecular target: T15, LILRB1 on transiently transfected CHO cells (UniProt Q8NHL6 24-650); assay: CELISA, transiently transfected CHO cells
T15 construct: whole, on cells; V5 tag at the N-terminus

[24] = molecular target: T3, LILRB5 on transiently transfected CHO …; assay: CELISA, transiently transfected CHO cells
[25] = molecular target: T4, LILRA4 on transiently transfected CHO …; assay: CELISA, transiently transfected CHO cells
[26] = molecular target: T5, LILRB4 on transiently transfected CHO …; assay: CELISA, transiently transfected CHO cells
[27] = molecular target: T6, LILRA3 on transiently transfected CHO …; assay: CELISA, transiently transfected CHO cells
[28] = molecular target: T7, LILRA6 on transiently transfected CHO …; assay: CELISA, transiently transfected CHO cells
[29] = molecular target: T16, LILRB2 (Q8N423-2) on transiently transfected CHO cells (UniProt Q8N423-2 22-597); assay: CELISA, transiently transfected CHO cells
T16 construct: whole, on cells
T16 sequence (Q8N423 22-597, one chain of several): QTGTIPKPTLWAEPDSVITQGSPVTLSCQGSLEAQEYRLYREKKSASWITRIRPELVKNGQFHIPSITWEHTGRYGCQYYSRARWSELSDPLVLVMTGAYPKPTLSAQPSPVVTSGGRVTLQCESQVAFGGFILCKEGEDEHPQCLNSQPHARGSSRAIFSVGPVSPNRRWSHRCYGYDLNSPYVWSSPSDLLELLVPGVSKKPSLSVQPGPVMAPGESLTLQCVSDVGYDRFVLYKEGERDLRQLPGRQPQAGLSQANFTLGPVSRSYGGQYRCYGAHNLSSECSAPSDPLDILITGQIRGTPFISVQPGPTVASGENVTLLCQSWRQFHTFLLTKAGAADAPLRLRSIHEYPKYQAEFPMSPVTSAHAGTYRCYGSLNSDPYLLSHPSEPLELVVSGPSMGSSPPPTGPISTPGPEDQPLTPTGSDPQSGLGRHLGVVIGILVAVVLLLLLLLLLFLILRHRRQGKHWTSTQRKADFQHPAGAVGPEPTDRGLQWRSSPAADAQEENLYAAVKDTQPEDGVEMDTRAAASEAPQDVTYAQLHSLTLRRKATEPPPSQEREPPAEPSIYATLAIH

[30] = molecular target: T8, LILRA2 on transiently transfected CHO …; assay: CELISA, transiently transfected CHO cells
[31] = molecular target: T9, LILRA1 on transiently transfected CHO …; assay: CELISA, transiently transfected CHO cells
[32] = molecular target: T10, LILRA5 on transiently transfected CHO …; assay: CELISA, transiently transfected CHO cells

T1 sequence (Q8N423 22-597): as the sequence (Q8N423 22-597, one chain of several) above

B1: PRO2518 (antibody, human IgG4 S228P, kappa, V domains shown)
VH: QITLKESGPTLVKPTQTLTLTCTFSGFSLNTYAMGVSWIRQPPGKALEWLASIWWNGNKYNNPSLKSRLTVTKDTSKNQVVLTMTNMDPVDTATYYCAHSRIIRFTDYVMDAWGQGTLVTVSS
VL: DIQMTQSPSSLSTSVGDRVTITCRASEDIYNDLAWYQQKPGKAPKLLIYNANSLHTGVASRFSGSGSGTDFTFTISSLQPEDVATYFCQQYYDYPLTFGQGTKLEIKR
notes: also called J19.H1; J-19
binding result [1]: binds

B3: PRO3790 (bispecific antibody, human IgG1, kappa)
chain: DVQMTQSPSSLSASVGDRVTITCQASQSISSWVSWYQQKPGKPPKLLIYRGGYLESGVPSRFSASGSGTDFTLTISSLQPEDFATYYCQSTDSSTYGGAFGCGTKVTVLGGGGGSGGGGSGGGGSGGGGSQQVVESGGGLVQPGGSLRLSCAVSGIDLNSYAMTWVRQAPGKCLEWIGYIGSASSTYYASWASGRFTISKDNSKNTVYLQMNSLRAEDSAVYFCARGSTYINIWGQGTLVKVSSEPKSSDKTHTCPPCPAPELLGGPSVFLFPPKPKDTLMISRTPEVTCVVVDVSHEDPEVKFNWYVDGVEVHNAKTKPREEQYNSTYRVVSVLTVLHQDWLNGKEYKCKVSNKALPAPIEKTISKAKGQPREPQVYTLPPCREEMTKNQVSLSCAVKGFYPSDIAVEWESNGQPENNYKTTPPVLDSDGSFFLVSKLTVDKSRWQQGNVFSCSVMHEALHNHYTQKSLSLSPGK
heavy: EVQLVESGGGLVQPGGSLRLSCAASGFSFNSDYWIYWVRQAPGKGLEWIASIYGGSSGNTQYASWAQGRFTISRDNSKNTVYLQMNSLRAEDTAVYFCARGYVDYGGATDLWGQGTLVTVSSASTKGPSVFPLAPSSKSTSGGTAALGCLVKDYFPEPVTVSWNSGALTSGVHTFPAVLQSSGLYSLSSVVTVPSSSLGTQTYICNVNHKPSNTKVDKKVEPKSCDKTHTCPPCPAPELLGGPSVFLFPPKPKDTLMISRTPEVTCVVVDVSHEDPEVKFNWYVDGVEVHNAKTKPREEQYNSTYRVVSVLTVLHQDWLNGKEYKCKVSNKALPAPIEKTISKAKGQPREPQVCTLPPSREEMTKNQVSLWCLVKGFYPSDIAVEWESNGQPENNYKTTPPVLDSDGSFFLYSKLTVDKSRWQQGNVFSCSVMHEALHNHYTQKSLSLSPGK
light: DIQMTQSPASLSASVGDRVTITCQASQSIGTYLAWYQQKPGKPPKLLIYRAFILASGVPSRFSGSGSGTDFTLTISSLQPEDFATYYCQSNFYSDSTTIGPNAFGQGTKVEIKRTVAAPSVFIFPPSDEQLKSGTASVVCLLNNFYPREAKVQWKVDNALQSGNSQESVTEQDSKDSTYSLSSTLTLSKADYEKHKVYACEVTHQGLSSPVTKSFNRGEC
notes: anti-CD47 x PDL1: 70-26-B04-sc03 scFv on hole-Fc, 37-20-B03-sc09.1 Fab on knob-Fc
Kd (recombinant human CD47): 35000 pM | koff (recombinant human CD47): 0.0235 s⁻¹ | kon (recombinant human CD47): 672000 M⁻¹ s⁻¹ | Kd (recombinant human PDL1): 75.9 pM | koff (recombinant human PDL1): 4.19e-05 s⁻¹ | kon (recombinant human PDL1): 552000 M⁻¹ s⁻¹ | EC50 [13]: 98800 pM | PD-L1 driven EC50 [nM], phagocytosis of H292 cells [14]: 0.04 nM | CD47 driven EC50 [nM], phagocytosis of H292 cells [15]: 31.2 nM | EC50 [nM], PD-L1 / PD-1 transgenic NFAT reporter gene assay [16]: 0.272 nM | IC50 [17]: 110000 pM | EC50 [18]: > 100000 pM | Rel. maximum binding (max. MFI sample / max. MFI magrolimab) [19]: 92.5 | Rel. maximum binding (max. MFI sample / max. MFI magrolimab) [20]: 87 | IC50 [21]: 68 pM

Continued, values first:

binding result [2]: no binding | binding result [3]: no binding | binding result [4]: no binding | binding result [5]: no binding | binding result [6]: no binding | binding result [7]: no binding | binding result [8]: no binding | binding result [9]: no binding | binding result [10]: no binding | Kd (recombinant human LILRB2): 131 pM | koff (recombinant human LILRB2): 0.000128 s⁻¹ | kon (recombinant human LILRB2): 974000 M⁻¹ s⁻¹ | Rel. max. inhibition % (rel. to J-19) [11]: 99.5% | IC50 [12]: 593 pM
B2: PRO3697 (scFv)
scFv: AFQLTQSPSSLSASVGDRVTITCQASQSIGTYLAWYQQKPGKPPKLLIYRGGTLASGVPSRFSGSGSGTDFTLTISSLQPEDFATYYCQSYDSSNTFGTGTKVTVLGGGGGSGGGGSGGGGSGGGGSQEQLVESGGGLVQPGRSLRLSCAASGFDLSADYMCWVRQAPGKGLEWIACIYIDDDNTYYATWAKGRFTISKDNSKNTVYLQMNSLRAEDSAVYFCARGYGVYTGAITYFTLWGQGTLVKVSS
notes: anti-LILRB2 scFv; in the CELISA selectivity test it was cross-linked with an anti-framework antibody; also called 69-06-G04-sc05

binding result [22]: no binding (tested: up to 100 nM) | binding result [23]: no binding (tested: up to 100 nM) | binding result [24]: no binding (tested: up to 100 nM) | binding result [25]: no binding (tested: up to 100 nM) | binding result [26]: no binding (tested: up to 100 nM) | binding result [27]: no binding (tested: up to 100 nM) | binding result [28]: no binding (tested: up to 100 nM) | binding result [29]: binds | binding result [30]: no binding (tested: up to 100 nM) | binding result [31]: no binding (tested: up to 100 nM) | binding result [32]: no binding (tested: up to 100 nM)
B4: PRO3635 (antibody, human IgG4 S228P, kappa, V domains shown)
VH: QQLVESGGGRVQPGGSLRLSCAASGFSFTNNYYMCWVRQAPGKGLEWIACMLVGAWGNTYYASWANGRFTISKDNSKNTVYLQMNSLRAEDTATYFCARARDYTWTLGGDPETSGFNLWGQGTQVTVSS
VL: DVQMTQSPSSLSASVGDRVTITCQASQSIGSNLAWYQQKPGKPPKLLIYKASTLESGVPSRFSGSGSGTDFTLTISSLQPEDFATYYCQSTAGSSRSGNYGYVFGQGTKVEIKR
notes: anti-LILRB2 IgG4; also called 68-18-E11-sc02 IgG4; IgG variant of scFv PRO3064

From EP4574844A1 (Numab Therapeutics AG, dated 2025)
